# Test results: the RNAGym collection of RNA variant scans (doi:10.7554/elife.80360)
# B1: Twister Ribozyme (parent)
# chain: AACACUGCCAAUGCCGGUCCCAAGCCCGGAUAAAAGUGGAGGGGGCGG
# Variants of: B1
# Test: self-cleavage, relative activity (ratio to wild type); higher = more cleavage; co-transcriptional
row,Variant,self-cleavage
1,AACACUGCCCAUGCCGGUCCCAAGCCCGGAUAAAAGUGGAGGGAGCGG,0.932
2,AACACUGCCAAUGCCGGUCCCAAGCCCGGAUAAAAGUGGAGGCGACGG,0.294
3,AACACUACCAAUGCCCGUCCCAAGCCCGGAUAAAAGUGGAGGGGGCGG,0.084
4,AACACUGCCAGUGCCGGUCCCAAGCCCGGCUAAAAGUGGAGGGGGCGG,0.861
5,AACACUGCCAAUGCCGGUCCUAAGCGCGGAUAAAAGUGGAGGGGGCGG,0.0581
6,AACCCUGCCAAUGCCGGUCCCAAGCCCGGAUGAAAGUGGAGGGGGCGG,0.146
7,AACACUGCUAAUCCCGGUCCCAAGCCCGGAUAAAAGUGGAGGGGGCGG,0.592
8,AACAAUGCCAAUGCCGGUCCCAAGCCCGGAUAAAAGUGGAGGGGUCGG,0.413
9,AACACUGCCUAUGCCGGUCCCAAGCCCGGAUAAAAGUGGAGGGGGCGC,1.09
10,AACACUGCCAAUGCCGGUCCCAAGCCCGGAAAAAUGUGGAGGGGGCGG,1.09
11,AACACUGCCAAUCCCGGUCCCAAGCCCCGAUAAAAGUGGAGGGGGCGG,0.31
12,AACACUGCUAAUGCCGGUCCCAAGCCCGGAUAAAAGUGGAGGGGGCUG,0.269
13,AACACUACCAAUGCCGGUUCCAAGCCCGGAUAAAAGUGGAGGGGGCGG,0.122
14,AACACUGCCAAUGCCGAACCCAAGCCCGGAUAAAAGUGGAGGGGGCGG,0.18
15,AACACUGCCCAUGCCGGUCCCAAACCCGGAUAAAAGUGGAGGGGGCGG,0.0991
16,AACACUGCCAUUGCCGGGCCCAAGCCCGGAUAAAAGUGGAGGGGGCGG,0.0666
17,AACACUGCCAAUCCCGGUCCCAAGCCGGGAUAAAAGUGGAGGGGGCGG,0.104
18,AACACUGCGAAUGCCGGUCCCAAGCCCGGAUAAAAGUUGAGGGGGCGG,0.387
19,AACACUGACAAUGCCGGUCCCAAGCCCGGAUACAAGUGGAGGGGGCGG,0.279
20,AACACUGCUAAUGCCGGUACCAAGCCCGGAUAAAAGUGGAGGGGGCGG,0.0695
21,AACACUGCCAAUGCCGGCCACAAGCCCGGAUAAAAGUGGAGGGGGCGG,0.0953
22,AACACUGCCAAUGCCGGUCCCAAGCCCGGAUAAAAGAGGAGAGGGCGG,0.129
23,AACACUGCCAAUGCCGGUCCCAAGCCCGGGUAUAAGUGGAGGGGGCGG,0.919
24,AAGACCGCCAAUGCCGGUCCCAAGCCCGGAUAAAAGUGGAGGGGGCGG,0.0367
25,AACACGGCCAAUGCCGGUCCCAAGCCCGGAUAAAAGUGGAGGGAGCGG,0.229
26,AACGCUGCCAAUGCCGGUCCCUAGCCCGGAUAAAAGUGGAGGGGGCGG,0.69
27,AACAAUGCCAAUGCCGGUCCCAAGCCCGGAUAAUAGUGGAGGGGGCGG,0.182

row,Variant,self-cleavage
1,AACACUACCAAUGCCGGUCCCAAGCCCGGAUAAGAGUGGAGGGGGCGG,0.111
2,AACACUGCCAAUGCCGGUGCCAAGCCCGGAUAAAAGUGGAGGGGGCGC,0.23
3,AACACUGCCAAUGCCGGUCUCAAGCCCGGAUAACAGUGGAGGGGGCGG,0.0697
4,AACACUGCCAAUGCCGGUCCCAAGCCCGGAUACAAGUGGAGGGUGCGG,0.97
5,AACACUGCUAAUGCCGGUCCCAAGCCCGGAUAAAAGUGGAGGGGCCGG,0.157
6,AACACUGCCAAUGCCGGUCGCAAGCCCGGAUAAAAGUGGGGGGGGCGG,0.104
7,AACACUGCCAAUGCCGGGCCCAAGCCCGGAUAAAAGUGGCGGGGGCGG,0.0607
8,AUCACUGCCAAUGCCGGUCCCAAGCCCGGAUAAAAGUGGAGCGGGCGG,0.134
9,AACACUGCCAAUGCCGGUCCCAAGCCCGGGUCAAAGUGGAGGGGGCGG,0.877
10,AAGACUGCCAAUGCCGGUCCCAAGCCCGGACAAAAGUGGAGGGGGCGG,0.347
11,AACACUGCCAAUGCCGGUCCUAAGCCCGGAUAAAAGGGGAGGGGGCGG,0.0506
12,AACACUGCCUAUGCCGGUCCCAAGCCCGGAUAAAAGUGGAGGAGGCGG,0.373
13,AGCACUGCCAAUGCCGGUCCCAAGCCCGGAUAAAAGUGGAGGGGGAGG,0.2
14,AACACUGCCAAUGCCGGUCCCAAGCCCGCAUAAAAGUGGAGGGGGCCG,0.222
15,AACACUGCCCAUGCCGGUCCCAGGCCCGGAUAAAAGUGGAGGGGGCGG,0.453
16,AACACUGCCAAUGCCGGUCCCAAGACCCGAUAAAAGUGGAGGGGGCGG,0.146
17,AACACUGCCAAUGCCGGUCCCAAGCCCAGUUAAAAGUGGAGGGGGCGG,0.844
18,AACACGGCCAAUGCCGCUCCCAAGCCCGGAUAAAAGUGGAGGGGGCGG,0.0484
19,AACAAUGCCAAUGCCGGUCCCAAGCCCGGAUAAAAGUGGAGGGGGAGG,0.652
20,AACACUGCCAAUGCCCGUCCCAAGCCCGGAAAAAAGUGGAGGGGGCGG,0.657
21,AACACUGCCAAUGCCGGUGCCAAGCCCGGAUAAUAGUGGAGGGGGCGG,0.12
22,AACACUGCCAAUGCCGGUCCCAAGCCAGGAUAAAAGUGGAGGGGGCGG,0.672
23,AGCGCUGCCAAUGCCGGUCCCAAGCCCGGAUAAAAGUGGAGGGGGCGG,0.212
24,AACACUGCCAAUGCCGGUCCCAAGCACGGUUAAAAGUGGAGGGGGCGG,0.542
25,AACACUGCCAAUGCCGGUCCCAAGCCCGGAUAAAAGUAGAGGGGGGGG,0.966
26,AUCACUGCCAAUGCCGGUCCCAAGCCCGGAUAUAAGUGGAGGGGGCGG,0.655
27,GACACUGCCAAUGCCGGUCCCAAGCCCUGAUAAAAGUGGAGGGGGCGG,0.428
